# According to patent publication US8642284:
# Experiments:
# [1] = target: histone H2B (calf thymus) (UniProt P62808)
# [2] = target: histone H2A (calf thymus) (UniProt P0C0S9)
# [3] = system: unacetylated histone H3 N-terminal tail peptide (residues 1-20)
# [4] = system: histone H3 N-terminal tail peptide (residues 1-20) di-acetylated at lysines 9 and 14
# histone H4 (calf thymus) = histone H4 (calf thymus) (UniProt P62803)
# [5] = target: histone H3 (calf thymus), intact protein (UniProt P68432)
substance,measurement,setting,value
recombinant 6xHis-tagged full-length yeast Sir2p,"ADP-ribosylation (transfer of 32P from NAD, SDS-PAGE)",[1],transferred radioactive ADP-ribose to H2B and H3
same,"ADP-ribosylation (transfer of 32P from NAD, SDS-PAGE)",[2],"but not to H1, H2A and H4"
same,"ADP-ribosylation of peptide (32P-NAD, thin layer chromatography)",[3],modified only the diacetylated H3 tail peptide (unacetylated peptide not modified)
same,"ADP-ribosylation (transfer of 32P from NAD, SDS-PAGE)",histone H1 (calf thymus),"but not to H1, H2A and H4"
same,"ADP-ribosylation of peptide (32P-NAD, thin layer chromatography)",[4],Both the yeast and mouse Sir2 modified only the diacetylated H3 tail peptide
same,"NAD-dependent deacetylation (HPLC, areas under peaks 1, 2 and 4)",[4],at least 27% of the input peptide was deacetylated by Sir2p
same,deacetylation of Lys9 in peak 4 (Edman sequencing),[4],about 23% of Lys9
same,deacetylation of Lys14 in peak 4 (Edman sequencing),[4],27% of Lys 14
same,"ADP-ribosylation (transfer of 32P from NAD, SDS-PAGE)",histone H4 (calf thymus),"but not to H1, H2A and H4"
same,"ADP-ribosylation (transfer of 32P from NAD, SDS-PAGE)",[5],transferred radioactive ADP-ribose to H2B and H3
same,transfer of 32P from NAD (SDS-PAGE),[5],32P was transferred from NAD to intact histone H3
